The conditions of data set [1]: cited from earlier work; for half-life in human serum: following subcutaneous administration.
The nature of data set [2]: Predicted human plasma concentration profiles of GLP-1 agonists dosed by periodic injection, model fitted to published human pharmacokinetic data. Conditions: for peak-trough / peak relative to mean: periodic injection dosed according to prescribers' information; for d[drug]/dt: periodic injection, percent of steady state mean concentration per hour. The text has this:
Two compartments (SC and Central) are contemplated. A constant fraction of SC drug enters the Central compartment per unit time (defined by Ka). A constant fraction of Central drug is eliminated per unit time (defined by K). Central drug concentration (equal to plasma drug concentration) is an amount of drug in the Central compartment (A) diluted into its volume of distribution (Vd).
Plasma concentrations are each expressed as a fraction of […] plasma concentration i.e., steady state concentration (Css). The predictions are based upon published human pharmacokinetic data, with either raw plasma concentration data or data digitized from published figures for a single subcutaneous dose. The plasma concentrations were fitted to a model describing “absorption+single component decay” for each agent, as depicted in FIG. 13, based upon a rate constant for absorption from a subcutaneous depot into the plasma, and another rate constant for elimination from the plasma compartment. Data were fit using non-linear regression via an iterative least-squares method within Prism v7.0 (GraphPad Software Inc., San Diego, Calif.).
The derived plasma concentration profile for a single subcutaneous bolus was extended from the time of dosing until plasma concentrations were negligible. This profile was serially added to itself, staggered by a period determined by the indicated dose interval, and in a magnitude determined by the recommended dose increases. The numeric sum is shown as the black line in each plot.
(§1) Rate of change of drug concentration, particularly positive rate of change, d[drug]/dt, was derived as the first differential of the plasma concentration profile summed as described above. The d[drug]/dt was expressed with “d[drug]” units reduced to percent of steady state mean concentration of indicated doses, to enable comparisons between agents with differing potencies and pharmacokinetics. The “dt” units were hours. The X-axes in FIGS. 10 and 12 represent the d[drug]/dt thus obtained, in units of “% of steady-state mean (i.e., Css) per hour”.

For data set [3] the following is noted: patients, cited from earlier work.
Data set [4] addresses T1, human GLP-1 receptors (Homo sapiens, UniProt P43220).
T1 construct: expressed in transfected cells; host or cells: CHO-K1 (transient transfection, Lipofectamine 2000)
Put plainly: Albumin binding assessed by potency shift: cAMP activation of GLP-1 receptors expressed in CHO-K1 cells at different HSA concentrations. It is filed as cell-based. Conditions: potency decreased with increasing albumin concentration; final HSA 0-4%. The text has this: EC50 values were converted to pEC50 values using the formula: pEC50=−Log(EC50).

Data set [5] can be described thus: Estimated d[drug]/dt if administered via single subdermal placement of an osmotic drug delivery device. The arrangement: species or system human.
Text: as §1

Where [6] appears, read: periodic injection of aqueous solution.
[7] abbreviates: periodic injection (weekly aqueous solution).

Here are results for 5 substances from US20200188479A1, “APPARATUS AND METHODS FOR ADMINISTRATION OF A NAUSEOGENIC COMPOUND FROM A DRUG DELIVERY DEVICE” (INTARCIA THERAPEUTICS, INC., priority 2017, published 2020).

Read-outs that look alike come from different tables or passages of the source.

T1 sequence (P43220 24-463): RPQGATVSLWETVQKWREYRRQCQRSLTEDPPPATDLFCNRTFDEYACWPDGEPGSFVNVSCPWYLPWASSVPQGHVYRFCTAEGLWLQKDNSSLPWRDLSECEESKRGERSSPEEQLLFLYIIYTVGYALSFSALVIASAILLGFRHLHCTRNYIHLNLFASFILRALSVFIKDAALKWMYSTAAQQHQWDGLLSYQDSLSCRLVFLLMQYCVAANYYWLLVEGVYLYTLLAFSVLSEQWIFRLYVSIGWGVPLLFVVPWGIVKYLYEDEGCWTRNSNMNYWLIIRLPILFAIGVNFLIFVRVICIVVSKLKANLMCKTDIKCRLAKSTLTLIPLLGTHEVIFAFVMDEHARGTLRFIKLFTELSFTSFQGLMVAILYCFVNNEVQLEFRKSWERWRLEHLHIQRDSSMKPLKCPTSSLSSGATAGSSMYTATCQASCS

Regarding GLP-1, the t1/2 in data set [1] (peptidase prone GLP-1, by contrast to exenatide) is recorded as roughly 3.4 min.

With albiglutide, the peak-trough in data set [2] is 28 % of peak. For the same substance, in data set [1] (in humans), the half-life (in general, the time in which the quantity being followed falls by half) is 140 to 190 h.

Regarding “des-Pro^36-exendin-4(1-39)-Lys6-NH2 [lixisenatide]”, in data set [2], the “peak relative to mean” value is listed as 2.4 × mean, the peak-trough is reported as 97 % of peak and the “d[drug]/dt” value is recorded as 204 % mean/hour. For the same substance, in data set [2] (setting [6]), the Tmax (in general, the time at which the peak concentration occurs) was roughly 1.7 h and the t1/2 is roughly 3.0 h. Moreover, in data set [3] (daily injection, in 24 weeks), the nausea is reported as 26% and the vomiting is on record as 11%. In addition, in data set [1], the “half-life in human serum” value is on record as “approximately several hours”. In addition, the terminal half-life result in data set [1] (humans, subcutaneous administration) is given as “approximately 3 h”.

For dulaglutide, the peak-trough in data set [2] is reported as 63 % of peak.

Regarding semaglutide, in data set [2] (setting [7]), the Tmax is roughly 76.8 h and the t1/2 was roughly 199 h. Further, in data set [2], the “peak relative to mean” value was 1.12 × mean, the peak-trough was 26 % of peak and the “d[drug]/dt” value is 3.3 % mean/hour. In data set [4], the “albumin (HSA) concentration at mid-range of the potency change” value was roughly 0.6%. In data set [5], the “d[drug]/dt, times lower than d[exenatide]/dt” value is reported as 35 ×. In addition, in data set [3] (weekly injection), the nausea reported is 22% and the withdrawn is listed as 6%. Further, the “half-life in human serum” value in data set [1] is roughly 165 h.
